Reference: a protein production outcome set (Wang et al. 2014)

Experiment: label from the status in PepcDB records

Sequence	protein production
MTKKEKGTMMTLAAGLAWGISGISGQYLMSHGVHVNLLTSLRLLITGIFLLSLARSKQKEHLVAAWKQPKFLKQVLLFSIFGLVLNQYAFLRAIHLTNAGTATVLQYMAPILILSIVCILNRQRPTSFEIIAIAMAILGTYMIATHGKLGSLAITPKGLMWGLGSAITYSIYILLPVKLIHEWGSTIVIGSGMFIGGILFSLVTKAWQYPLQINVMSILAYIGIIGIGTIFAYTFFLKGVSIVGAVKGSLLASVEPVSSVFLTVLVLGEIFYPIDLLGMLFIFLAVTLISYKDLIALKKMKRVR	failed
MTKKQKEILFCDYFEEWVEVYKVGAIAKITLAKYYNAAKQLRDLCPKLFISDFDRREYQRIINVYAETHEKQTVKDFHHHVKACIKDLFHDGLIDKDPTYRVVIKGAEPTRAKLEHHHHHH	failed
MTKKTGFFKRLKALTLPQKQLFATALCQRMLPNYQLFSEVCEFGDPAVLSTALELLWQSLYDPKLKFNIDVHLQRLEDNTPEPADFEAYGVYPAMDAVVAISTLLGAIQGKIEEDIVNISKLSSSTVANYIEAISDVDLVDEALDDFVFAHEVMEEEKELQNSLLEIIEENPKITAELVKGLRKDIIETGVSNIGISVA	not failed
MTKMYINTIIEYIDSNIAYSPIVFFSLLILAGLNVPISEDAIVLMGGILSSRKNEYTILIFLGIFWGAYLGDIISFYIGKLMGNKLFKNKKDNNLLDKINYYYGQYGVLTLFIGRFIPFGVRNAIFMSAGMGNMKSNLFIVSDFFATLLSIVVYFTLSFKLGQSFEIIFSKIKIIIFAIFIAVIATTIIIYVIKKNKKVDKNLK	failed
MTKNAASKARIAYVCTECGTEYSKWQGQCTECGTWNCLSQITLGNAGSVKNPTMKHGNWTGQLDPPKITALKDVQHSEQARISTGIGEFDRVLGGGLVAGAVVLIGGDPGIGKSTLLLQALARMASNLPTLYVTGEESLAQVAGRAVRLDLPLEGLNALAETGIESILQHASSARPRLIVADSVQTLWTEALTAAPGSVSQVRESAAQLVRYAKETGTTVFLVGHVTKEGGIAGPRVLEHMVDAVLYFEGESGSRFRLLRAFKNRFGAVNELGVFAMSEKGLKEVANPSAIFLSGRNSDQPGSCVMVTREGTRPLMVEVQALVDTSPLSNPRRVTVGLEQNRLAMLLAVLHRHGNVLVGDQDVFINIVGGIRVQETAADLPVLLAVRSSLCNRALPEKTIAFGEVGLSGEIRPVPNGEERLREAATHGFKHAIVPKANAPKSAIKDMQIIAVERLDQALEASY	failed
MTKQIKVGVIGVGQMGQYHAEIYQKLPQVELVAICEFNDERRAEMAEKFQCKAYKDYHELLANTEIEAVIIVLPDNMHRDCVEEAVKHKKHILLEKPLAKELEDGKAMYELTKDYDKVFTVGFLLRFDPRFNMIKQRLDNGELGDIIHLYCRRNSPITGPKRYIGASDLSMHVMIHDIDYINWYMDSEPVKVIAKSRSVLLKEYGMNDVIYAIVTYENGAIACLEACWVLPENSPTIIDDKLELVGTKGVAYVDSCDHGVRFVSEKGVSYPDSRHWYYTNGEVSGDLAEEVMAFINNVANNTKSIITPKEAYDSLRVVDAIERSIAEGKEVSL	failed
MTKRHVSLPADAKDVRRAFVSGVDERLSAAETPDELATAVTGTLADLRGERDAYEAWRDGDDVRPAAAARLATLDPRNASLESEYYAEKDEAAFARSKPLQWLWRQFDTTPLADNVDVALPFRRMLAGHLFAGVGEDVRLFKGITMTYGHNIELGDNAVVHDGVHLDDRGELVVGARASVSNGAHLYTHDHDVVDQTDVTNYRTEIGADARVTQGALVRAGVRVGENALVGSRSVVQGDVPAHHIAVGSPAESVRVKPGWEAVAAPLDAGGERRQAERRLDDAVPADAAVYDEFQRDRSPPGER	failed
MTKSYDVWWQKGQESDDDMARDHQEAWERTIEMLDTSDIKGKTILDVGCNQGGFLRKLYDTTPFKEGVGIDLARLSLEKAETLKGERPLTYYLTDKPQETNRTFDTAVSTSVLYLIEDIPQHAQDLKEVLKPGGVYYASFADLTNNPSRQFMDDTINQYGATPSQNHSLKHIVDSFVDAGFEVAVMKEPVPDVIDLTHYSDFYLSPNDYLQTLYEESFLIKASVKEGIGKLEHHHHHH	not failed
MTKVLILGANGRIARIVEQRLLAETDVQLTLVLRNAGRLLVTSPERETVIQGDVSDSQLLDTVMPNQDIVYANLAGNMALLAQTIITSMNRNHVPHLIWVTGSGLYHETPNPFGAWVEQVVGHAAKNDTRHAARIIESSDIPATIIRAAYMTDDTKIDYELTYKGERFKGTMISRASIADLIMKIIAEPTAYENTSLGIAQPGTDNMLPQVKLMAQHR	failed
MTKYKVALFDLDNTLLKTEDASVAALTYALNQDGVEVTPQAIVELMGLPGIDMARELGSSNPAKTIDIFNERINQEVDLIKEYDGIDEMFAGLRELGIEYGIVTSKLRRVFDDEMRSFPKIRAIEKVVLSDDTKKHKPHADPIEFGMQKYFPKLNRADVIYVGDSLFDMQSAHAAGVDFANAGWGAIPANDFSEAEYILKTPTDLLEIV	failed
MTKYQETAKAILAAVGGEKNIQHVTHCVTRLRLVLDNDEIVNDQVIKTIPNVIGVMRKNDQYQIILGNDVNNYYNAFLALGHFENTTREFSSQKKSSILEKLIETIAGVITPLIPALLGGGMLKVIGILLPMLGIASSSSQTVAFINFFGDAAYYFMPIMIAYSAASRFKVTPVLAATVGGILLHPAFVTMVAEGKPLSLFGAPVTLASYGSSVIPILIMVFLMQYIERWINKIVPSVMKSFLQPTLIILISGFLALVVVGPLGVIIGKGLSSAMLSIYHVAPWLALSILGAIMPLVVMTGMHWAFAPIFLAASVATPDVLILPAMLASNLAQGAASLAVAVKAKQKQTRQVAFAAGLSALLAGITEPALYGVTLKFKKPLYAAMISGGLVGAYIGLVNIASYTFVVPSIIGLPQYINPQGGNNFSNAVIAAIATIILTFIITWFLGIDEGENEKSSINAQEHTHIRSGLSKKETLYSPMVGNVLPLSKVPDETFSSKLLGEGLAITPSVGEVYAPFDGEIISLFPTKHAIALKDDKGVEVLIHIGIDTVELNGEGFEQLVKVGDFVKRGQLLLRMDIDFISSKGYSLISPVVVTNSIDQLEIIVKDAETMVTNEDDLLVIL	failed
MTLAARETAALDSVPEPPLADQLRAMDHLDALEAQSIYILREAFARLKKLALLWSLGKDSNVMIWLARKAFFGRVPFPALHVDTGKKFPEMYAFRDIYAKEWDLDLRVDPCPPIDSVDPTLPPAARSAARKTEGLKLALAKYGFDGLIAGIRRDEEATRAKERVFSPRGVEGGWDVRDQPAEFWDQFNASPPPGAHLRIHPILHWTEADIWAYTKREGIPIIPLYLSQNGKRYRSLGDQDITFPVNSNAASIDEILLELETTKVPERAGRALDHETEDAFERLRVAGYL	failed
MTLAPPPMPPSDAPAAESAGATLRLVIADALVVILTFIVMFLGVGQLSAEAGLSAVQTAVMTLLTVAAPAQAAAMQIMTSDGATSGVWVAAMVAVIIVNLRFMVMVASILGRLPQAGFLRGTAAVGLVSASSFAIILPRLMSAPPARPLLYCALVGVSCSISAVIGALLGHQLAASVPALVGAALGAMIPIYFATLIARQGKHKALIANALAGAVLVPLAAPLLGSLSLLIVPLGISALSLMIGKGTPANG	failed
MTLATRSMQPHAVSPGQARSWPLPAAGWLLLAVGVWLAFLSWMRPLALPDEGRYAGVAWDMLRNGSFAVPLIDGMPYFHKPPLYYWLAELSFRLFGVNEWAVRLPSALAAWASAVALYLFVRRHRDAASATLCVLVLATLPLFFGGAQYANMDMLVAGMITLCVLAGADTALRVRGGQAWRAMALATGVCAALAMLAKGLIGLVLPGAILLAWLAWRRDWRGLRALLWPPAILAFAVVAVPWFWLMQVRYPGFFQYFFVHQHFERFAQTGFNNVQPFWFYLPVIAGLALPWSLWAGGLLRKQFWAADADPDGLRRLALVWLAVIVAFFSMPQSKLVGYIMPVLPPLAFLLAEVVMGALRDPAVARATRRMARVSALVAVAICVTAVFVASFNARGSSRELALSLRGELRPDDTLVALHTYPFDLQLYAHAARPMWVVDDWSNPEIPKRDNWRRELYDAVQFEPALGERLLVSADTFQQRLCQAPEGSRYWVWGTAADEEAYAPLRGQAARFADARRSLWLVLVDEAFKGRVCDGTPTGG	failed
MTLDTAAGHPTMDFADRCPLPYTSPTHLQAVAYLHGIVAADPDRARVLELGCMSGANLLPFATAYPQAQAVGIDLDEEKIAQGQMWVQQYGLTNLQLQAMDLGSLLDSDLGKFDYIIVHGVFGLISGEARSALLAYCHRHLSAKGVVCFSYSTYPGGKTEEILQDALNLHASLAETPEQQQASARAMLSYLSLGMSADNPQRAAITTLVEEAEKLGDVSLALNYLQGLNQPCYLLDFNALIAQEGLSYVGEIEPHTEIASHYGEQVDSLLRAICPTGNKVLKQQYLDFNVGRKRRFSLLVATERAGKLESEIDISRLDKLSWAGSFRRVMLNKGLASNAHVTNAGIQISTDHELTQQILDVLGNAWPASVSFKQLIFNTHFPEKENDKQEHENNIRESLYALLKQGISSIHFCVGECAYRKSEFSALRALPNCGDIYPTFNYWYESFTLPSEALGLKIPMSLLEEQKEGSLALLDELHHKGLMIGSALAWQRYFQKRLELAKDVNDVIHSINPLIMYSSNASGGGLFKASDVIKVEKSRKEFVNDPIDAKFKGQLYDLLQKQKYDEARSLAEELTVKQPNNLQNWIALERINFVTGDKDAAIFSLAKVISMHSNAWLVYSELASLLHNTYNYWEAINLAYRVIRCDGNIAVAWNVVALVYLKFENMAGAEVCIEKAMKLLPNDAAILNAMAMVLDKKSDVESAIEYYRQAVSNAPEDLSLYSNLLFALLHNAKIPASEIFAEHLLYGDVVEKRNGALAPVRYLQNKDPDRVLRIGFVSGDLYSHPVSKFLSPVWNDIDHQHFSLYAYSTSHHHDDVTRMLEKNSTVWRNVASSSDTELFDLIKRDEIDILFDLSGHTGDNRLSMFAMKPAPIQISWIGYPGTTGLKAMDYYLVMNHAPYPEVLAHQFTEKLLYVLFDRQFEPVVNGPEVNDLPALTNGYLTFASFNRPTKINDTVLSAWGKILVQLPTSKMIIGALPSLQTRDLIRKKLESQGVQPEQLIFRERVNIMNYLAMHQEIDVLLDTFPYTGGTTTNYALWMGVPTLTLAGETYAARQGVVNLGQAGLNEFIAHSEADYIDKAISCNNRLDELNQIRHSLRKKMEYDIDTSDATAATYFEQALRTVWKAYCDGQPPKSYSIGH	failed
MTLETAFMLPVQDAQHSFRRLLKAMSEPGVIVALHQLKRGWQPLNIATTSVLLTLADNDTPVWLSTPLNNDIVNQSLRFHTNAPLVSQPEQATFAVTDEAISSEQLNALSTGTAVAPEAGATLILQVASLSGGRMLRLTGAGIAEERMIAPQLPECILHELTERPHPFPLGIDLILTCGERLLAIPRTTHVEVC	not failed
MTLFTLLLTLAWERLFKQGEHWQIDHRLEVIFRHVSPPSLFQTLFLTLCSMGVVAALLWLTSGILFGLISLLLWIVISLMCIGAGEIRQHYRRYLQAAQRGESDASREMAAELALIHGLPVGTSESEQLKELQNALLWINFRFYLAPLFWFVVAGPYGPVTLMGYAFLRARQTWLARHHTPLERAQSGVDSLLHWLDWIPARLAGAAYALLGHGEKALPAWFASLGDSRSSQYWVLTQLAQFSLARESHIEPVETPKAAVTLAKKVTLVLVVVVALLTIYGALV	failed
MTLHNEIKQLIIDCLDLEDVSIDDIETDAPLFGDGLGLDSIDALELGLAIKKKFDVKIEANSDSTKAHFYSVASLAKFIESQRP	failed
MTLLWGLLSGMAVIGGLIGVVAGLVGTTAPRRAPLQQRWQALRAGKDQGEDVRLRRRTLAALAVVVFVAVWLVSGNFVGGALLGVAVVGVPWLISPAQMAQERIGQLEALSEWTQRLAGLLRLGMGLEQAMITSRQGAPDELAPQIVNLSDRLRLGWRPDGALRAFAEELNDVTADKVVAALILSVNDRGPGLAQALEDLAGTVRDEVAKKRAIEADRAKPRTTVRWMTVITVGVVVAGFFVPSYTKPYSTLLGQLVLAFLTVGFIGVLALMRQLGAFRRIPRFLITDPSSTVRLPLAGDGAGRAGRWP	failed
MTLNITSKQMDITPAIREHLEERLAKLGKWQTQLISPHFVLNKVPNGFSVEASIGTPLGNLLASATSDDMYKAINEVEEKLERQLNKLQHKSESRRADERLKDSFEN	not failed
